System: Escherichia coli TOP10
Experiment: shrunken log2 fold change of peptide-encoding DNA abundance (4.5 h post-induction vs induction); higher = less antimicrobial activity (less host growth inhibition)
Settings: time post-induction: 4.5 h; library: site-saturation at positions 5, 18, 19, 20
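Note: peptides expressed intracellularly from a pBAD plasmid library in pooled LB shake-flask culture, induced with 0.3% L-arabinose, DNA abundance read by NGS, three biological replicates, DESeq2 with apeglm shrinkage.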

RRIRTRPPRLPRPRPRPGTDPRP
shrunken log2 fold change: -0.253

RRIRFRPPRLPRPRPRPKPVPRP
shrunken log2 fold change: 0.727

RRIRVRPPRLPRPRPRPDTFPRP
shrunken log2 fold change: -0.0845

RRIRLRPPRLPRPRPRPNDQPRP
shrunken log2 fold change: -0.19

RRIRTRPPRLPRPRPRPCLKPRP
shrunken log2 fold change: -0.0017

RRIRRRPPRLPRPRPRPMLNPRP
shrunken log2 fold change: -0.157

RRIRRRPPRLPRPRPRPLAFPRP
shrunken log2 fold change: 0.448

RRIRNRPPRLPRPRPRPEAAPRP
shrunken log2 fold change: 0.902

RRIRRRPPRLPRPRPRPFDMPRP
shrunken log2 fold change: -0.0228

RRIRLRPPRLPRPRPRPPDQPRP
shrunken log2 fold change: 0.349

RRIRMRPPRLPRPRPRPMRTPRP
shrunken log2 fold change: 0.502

RRIRNRPPRLPRPRPRPLGVPRP
shrunken log2 fold change: 0.129

RRIRLRPPRLPRPRPRPYRMPRP
shrunken log2 fold change: -1.54

RRIRYRPPRLPRPRPRPSFHPRP
shrunken log2 fold change: -1.01

RRIRIRPPRLPRPRPRPQQSPRP
shrunken log2 fold change: -0.113

RRIRHRPPRLPRPRPRPGYNPRP
shrunken log2 fold change: -0.418

RRIRQRPPRLPRPRPRPTKMPRP
shrunken log2 fold change: -0.239

RRIRERPPRLPRPRPRPVRIPRP
shrunken log2 fold change: -0.0343

RRIRMRPPRLPRPRPRPNIIPRP
shrunken log2 fold change: 0.23

RRIRYRPPRLPRPRPRPRMEPRP
shrunken log2 fold change: -0.0654

RRIRRRPPRLPRPRPRPFEDPRP
shrunken log2 fold change: -0.0157

RRIRCRPPRLPRPRPRPAVHPRP
shrunken log2 fold change: 0.0826

RRIRERPPRLPRPRPRPKNIPRP
shrunken log2 fold change: -0.723

RRIRYRPPRLPRPRPRPWSMPRP
shrunken log2 fold change: -0.221

RRIRWRPPRLPRPRPRPGLMPRP
shrunken log2 fold change: 0.444

RRIRVRPPRLPRPRPRPCPDPRP
shrunken log2 fold change: -0.0269

RRIRQRPPRLPRPRPRPFTKPRP
shrunken log2 fold change: -0.0312

RRIRTRPPRLPRPRPRPIQAPRP
shrunken log2 fold change: 0.232

RRIRWRPPRLPRPRPRPVGYPRP
shrunken log2 fold change: 0.0334

RRIRFRPPRLPRPRPRPLRSPRP
shrunken log2 fold change: 0.259

RRIRWRPPRLPRPRPRPNTQPRP
shrunken log2 fold change: 0.448

RRIRYRPPRLPRPRPRPVTLPRP
shrunken log2 fold change: -0.713

RRIRLRPPRLPRPRPRPFDAPRP
shrunken log2 fold change: 0.509

RRIRWRPPRLPRPRPRPQCFPRP
shrunken log2 fold change: 0.146

RRIRVRPPRLPRPRPRPLGDPRP
shrunken log2 fold change: -0.125

RRIRFRPPRLPRPRPRPYMKPRP
shrunken log2 fold change: -0.858

RRIRLRPPRLPRPRPRPLSTPRP
shrunken log2 fold change: -0.471

RRIRTRPPRLPRPRPRPMCNPRP
shrunken log2 fold change: -0.249

RRIRCRPPRLPRPRPRPNWHPRP
shrunken log2 fold change: -0.271

RRIRSRPPRLPRPRPRPDDIPRP
shrunken log2 fold change: -0.00173

RRIRLRPPRLPRPRPRPKLTPRP
shrunken log2 fold change: 0.106

RRIRARPPRLPRPRPRPWYFPRP
shrunken log2 fold change: -0.332

RRIRYRPPRLPRPRPRPDKGPRP
shrunken log2 fold change: -0.0723

RRIRFRPPRLPRPRPRPSQMPRP
shrunken log2 fold change: -0.208

RRIRWRPPRLPRPRPRPVVYPRP
shrunken log2 fold change: -0.228

RRIRIRPPRLPRPRPRPYTPPRP
shrunken log2 fold change: -0.825

RRIRDRPPRLPRPRPRPIVKPRP
shrunken log2 fold change: 0.0295

RRIRGRPPRLPRPRPRPVWRPRP
shrunken log2 fold change: 1.21

RRIRDRPPRLPRPRPRPGEAPRP
shrunken log2 fold change: 1.1

RRIRFRPPRLPRPRPRPLPWPRP
shrunken log2 fold change: -0.195

RRIRARPPRLPRPRPRPRFSPRP
shrunken log2 fold change: 0.308

RRIRMRPPRLPRPRPRPETDPRP
shrunken log2 fold change: 1.77

RRIRTRPPRLPRPRPRPLYNPRP
shrunken log2 fold change: -0.715

RRIRRRPPRLPRPRPRPIKTPRP
shrunken log2 fold change: 0.00866

RRIRSRPPRLPRPRPRPFAIPRP
shrunken log2 fold change: -0.638

RRIRYRPPRLPRPRPRPGMGPRP
shrunken log2 fold change: -0.195

RRIRDRPPRLPRPRPRPYKRPRP
shrunken log2 fold change: 0.000522

RRIRKRPPRLPRPRPRPFMCPRP
shrunken log2 fold change: 0.0653

RRIRTRPPRLPRPRPRPAKWPRP
shrunken log2 fold change: -0.000772

RRIRARPPRLPRPRPRPAWYPRP
shrunken log2 fold change: 0.0311

RRIRFRPPRLPRPRPRPGQFPRP
shrunken log2 fold change: -0.148

RRIRQRPPRLPRPRPRPREKPRP
shrunken log2 fold change: 0.158

RRIRKRPPRLPRPRPRPDQMPRP
shrunken log2 fold change: -0.0646

RRIRWRPPRLPRPRPRPNLSPRP
shrunken log2 fold change: -0.197

RRIRVRPPRLPRPRPRPEGPPRP
shrunken log2 fold change: 0.239

RRIRQRPPRLPRPRPRPHRSPRP
shrunken log2 fold change: -0.00875

RRIRERPPRLPRPRPRPSVTPRP
shrunken log2 fold change: -0.4

RRIRCRPPRLPRPRPRPDIYPRP
shrunken log2 fold change: -0.174

RRIRIRPPRLPRPRPRPEWGPRP
shrunken log2 fold change: -0.0166

RRIRWRPPRLPRPRPRPECWPRP
shrunken log2 fold change: 1.29

RRIRIRPPRLPRPRPRPCYHPRP
shrunken log2 fold change: -0.265

RRIRDRPPRLPRPRPRPECGPRP
shrunken log2 fold change: 1.71

RRIRWRPPRLPRPRPRPHDSPRP
shrunken log2 fold change: -0.122

RRIRYRPPRLPRPRPRPHLPPRP
shrunken log2 fold change: -0.542

RRIRSRPPRLPRPRPRPAVSPRP
shrunken log2 fold change: 0.105

RRIRTRPPRLPRPRPRPSYDPRP
shrunken log2 fold change: -0.495

RRIRDRPPRLPRPRPRPDWFPRP
shrunken log2 fold change: -0.0209

RRIRLRPPRLPRPRPRPFNYPRP
shrunken log2 fold change: -0.817

RRIRGRPPRLPRPRPRPMGDPRP
shrunken log2 fold change: 0.783

RRIRGRPPRLPRPRPRPAPQPRP
shrunken log2 fold change: 1.15

RRIRTRPPRLPRPRPRPCHYPRP
shrunken log2 fold change: -0.253

RRIRQRPPRLPRPRPRPWPVPRP
shrunken log2 fold change: 0.103

RRIRWRPPRLPRPRPRPEFWPRP
shrunken log2 fold change: 0.6

RRIRQRPPRLPRPRPRPYPKPRP
shrunken log2 fold change: 0.00727

RRIRWRPPRLPRPRPRPIDVPRP
shrunken log2 fold change: -0.298

RRIRMRPPRLPRPRPRPYIWPRP
shrunken log2 fold change: -0.402

RRIRNRPPRLPRPRPRPENLPRP
shrunken log2 fold change: 0.00699

RRIRQRPPRLPRPRPRPCTKPRP
shrunken log2 fold change: 0.00259

RRIRIRPPRLPRPRPRPCKCPRP
shrunken log2 fold change: -0.0887

RRIRCRPPRLPRPRPRPFWIPRP
shrunken log2 fold change: -0.513

RRIRSRPPRLPRPRPRPDACPRP
shrunken log2 fold change: 0.322

RRIRPRPPRLPRPRPRPHCSPRP
shrunken log2 fold change: -0.0583

RRIRTRPPRLPRPRPRPNCFPRP
shrunken log2 fold change: -0.0362

RRIRPRPPRLPRPRPRPNADPRP
shrunken log2 fold change: 0.0878

RRIRCRPPRLPRPRPRPKACPRP
shrunken log2 fold change: 0.0182

RRIRMRPPRLPRPRPRPTHHPRP
shrunken log2 fold change: 0.316

RRIRCRPPRLPRPRPRPIKQPRP
shrunken log2 fold change: -0.062

RRIRYRPPRLPRPRPRPQKQPRP
shrunken log2 fold change: 0.00415

RRIRTRPPRLPRPRPRPDSFPRP
shrunken log2 fold change: 0.033

RRIRYRPPRLPRPRPRPGDAPRP
shrunken log2 fold change: 0.0773

RRIRPRPPRLPRPRPRPFHTPRP
shrunken log2 fold change: -0.569

RRIRTRPPRLPRPRPRPDPTPRP
shrunken log2 fold change: -0.0451

RRIRLRPPRLPRPRPRPLAMPRP
shrunken log2 fold change: -0.218

RRIRLRPPRLPRPRPRPPDFPRP
shrunken log2 fold change: -0.0501

RRIRFRPPRLPRPRPRPVSNPRP
shrunken log2 fold change: -0.0552

RRIRFRPPRLPRPRPRPLKHPRP
shrunken log2 fold change: -0.475

RRIRYRPPRLPRPRPRPPVMPRP
shrunken log2 fold change: -0.355

RRIRLRPPRLPRPRPRPMIDPRP
shrunken log2 fold change: -0.0169

RRIRWRPPRLPRPRPRPWFYPRP
shrunken log2 fold change: -0.705

RRIRIRPPRLPRPRPRPAIQPRP
shrunken log2 fold change: -0.143

RRIRRRPPRLPRPRPRPYPSPRP
shrunken log2 fold change: -0.305

RRIRCRPPRLPRPRPRPVDMPRP
shrunken log2 fold change: -0.247

RRIRWRPPRLPRPRPRPDEWPRP
shrunken log2 fold change: 0.253

RRIRFRPPRLPRPRPRPNTTPRP
shrunken log2 fold change: -0.0257

RRIRRRPPRLPRPRPRPAGDPRP
shrunken log2 fold change: 0.563

RRIRFRPPRLPRPRPRPQWAPRP
shrunken log2 fold change: 0.136

RRIRIRPPRLPRPRPRPESDPRP
shrunken log2 fold change: 0.052

RRIRQRPPRLPRPRPRPREFPRP
shrunken log2 fold change: 0.0416

RRIRDRPPRLPRPRPRPNCFPRP
shrunken log2 fold change: 0.156

RRIRTRPPRLPRPRPRPFFSPRP
shrunken log2 fold change: -0.135

RRIRTRPPRLPRPRPRPFYVPRP
shrunken log2 fold change: -0.45

RRIRIRPPRLPRPRPRPQNLPRP
shrunken log2 fold change: -0.261

RRIRPRPPRLPRPRPRPPSIPRP
shrunken log2 fold change: -0.0949

RRIRKRPPRLPRPRPRPEMQPRP
shrunken log2 fold change: 1.92

RRIRDRPPRLPRPRPRPRLIPRP
shrunken log2 fold change: -0.189

Reference: the supplement of paper PMC9112550, “Optimization of the antimicrobial peptide Bac7 by deep mutational scanning” (BMC Biology, 2022)
